# Measured values: patent US20210355208
# Biological target: anti-EGFR activatable antibodies comprising substrates 2001, 2006-2010 and 2012
protein,measurement,value
human matriptase (protein) VVGGTDADEGEWPWQVSLHALGQGHICGASLISPNWLVSAAHCYIDDRGFRYSDPTQWTAFLGLHDQSQRSAPGVQERRLKRIISHPFFNDFTFDYDIALLELEKPAEYSSMVRPICLPDASHVFPAGKAIWVTGWGHTQYGGTGALILQKGEIRVINQTTCENLLPQQITPRMMCVGFLSGGVDSCQGDSGGPLSSVEADGRIFQAGVVSWGDGCAQRNKPGVYTRLPLFRDWIKENTGV,kcat/Km,a range of kcat/Km values ranging from 6E+02 to 2E+04
